Source: PMC12847411, “High-affinity optimization potential of the virus neutralizing antibody with twin cysteine-stabilized complementarity-determining region 3” (Frontiers in Cellular and Infection Microbiology, 2025)

B1: AZD8895-450 (antibody, V domains shown)
VH: QMQLVQSGPEVKKPGTSVKVSCKASGFTFMSSAVQWVRQARGQRLEWIGWIVIGSGNTNYAQKFQERVTITRDMSTSTAYMELSSLRSEDTAVYYCAANYCSSTICSDGMDIWGQGTMVTVSS
VL: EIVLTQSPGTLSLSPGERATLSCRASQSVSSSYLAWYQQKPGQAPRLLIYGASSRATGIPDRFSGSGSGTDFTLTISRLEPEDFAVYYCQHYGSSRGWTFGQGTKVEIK
B2: AZD8895 (antibody, V domains shown)
VH: QMQLVQSGPEVKKPGTSVKVSCKASGFTFMSSAVQWVRQARGQRLEWIGWIVIGSGNTNYAQKFQERVTITRDMSTSTAYMELSSLRSEDTAVYYCAAPYCSSISCNDGFDIWGQGTMVTVSS
VL: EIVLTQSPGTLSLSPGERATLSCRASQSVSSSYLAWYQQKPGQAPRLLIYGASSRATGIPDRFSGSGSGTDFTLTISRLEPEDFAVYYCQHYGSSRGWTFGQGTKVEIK
notes: also called seed antibody AZD8895; seed mAb; source: HEK293, transient transfection, purified (HiTrap Protein A HP)
B3: AZD8895-25 (antibody, V domains shown)
VH: QMQLVQSGPEVKKPGTSVKVSCKASGFTFMSSAVQWVRQARGQRLEWIGWIVIGSGNTNYAQKFQERVTITRDMSTSTAYMELSSLRSEDTAVYYCAAPYCSLTCCSDGFDIWGQGTMVTVSS
VL: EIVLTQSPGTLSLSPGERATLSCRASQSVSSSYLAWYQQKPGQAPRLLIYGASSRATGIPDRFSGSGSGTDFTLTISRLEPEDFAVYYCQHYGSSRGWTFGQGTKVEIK
B4: AZD8895-275 (antibody, V domains shown)
VH: QMQLVQSGPEVKKPGTSVKVSCKASGFTFMSSAVQWVRQARGQRLEWIGWIVIGSGNTNYAQKFQERVTITRDMSTSTAYMELSSLRSEDTAVYYCAAPYCSLTYCSDGFDIWGQGTMVTVSS
VL: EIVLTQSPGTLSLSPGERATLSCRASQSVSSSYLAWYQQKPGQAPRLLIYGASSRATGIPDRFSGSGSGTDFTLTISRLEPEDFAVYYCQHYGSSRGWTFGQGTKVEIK
B5: AZD8895-449 (antibody, V domains shown)
VH: QMQLVQSGPEVKKPGTSVKVSCKASGFTFMSSAVQWVRQARGQRLEWIGWIVIGSGNTNYAQKFQERVTITRDMSTSTAYMELSSLRSEDTAVYYCAAPYCSLTNCSDGFDIWGQGTMVTVSS
VL: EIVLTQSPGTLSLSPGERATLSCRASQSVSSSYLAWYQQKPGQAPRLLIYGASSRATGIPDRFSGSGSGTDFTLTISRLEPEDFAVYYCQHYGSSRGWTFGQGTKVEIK

These binders were tested against recombinant Fc-fused SARS-CoV-2 RBD protein (Severe acute respiratory syndrome …, UniProt P0DTC2) (assay: SPR). Details: both partners purified.
Binder B1 has a Kd of 16.5 nM. Work on B2 yielded a Kd of 12.6 nM. Binder B3 has a Kd of 4.79 nM. For B4, the Kd was 8.42 nM. Work on B5 yielded a Kd of 13.2 nM.
